{"source": "patent US20230357323A1", "about": "“HUMAN IL23 RECEPTOR BINDING POLYPEPTIDES” (University of Washington, priority 2020, published 2023)", "key": {"[1]": {"assay": "Proteolytic stability in simulated intestinal fluid (SIF), SDS PAGE", "assay_type": "in vitro ADME", "details": "for SIF t1/2: pH 6.5", "excerpt": "(§1) While resistance to high heat is important for manufacturing and storage, and resistance to chemical denaturant is a good proxy for stability overall, any oral, gut-restricted IL-23R inhibitor will preferably survive the harsh conditions of the gastrointestinal tract, including high acidity and physiological proteases, to reach the site of action intact. To determine feasibility of oral administration, we therefore more directly assessed the stability of our designed IL-23R inhibitors in simulated gastric fluid (SGF), including the protease pepsin at pH 2, and simulated intestinal fluid (SIF), including proteases trypsin and chymotrypsin at pH 6.5. Proteolysis was assessed qualitatively by SDS PAGE at timepoints up to 24 hours.\nSeveral reported formulations of simulated intestinal fluid show variable proteolytic activity, and protease activity of human intestinal fluid has not been thoroughly studied. Therefore, as a benchmark for SIF stability, we directly compared our designs to V565-38F, an oral, gut-restricted nanobody inhibitor of TNFa currently in a phase 2 clinical trial for Crohn's disease, in SIF with enzyme concentrations sufficient to degrade this molecule over 24 hours. Design variants with proteolytic stability greater than or equal to V565-38F are likely to be sufficiently stable to enable oral therapy.\n(§2) Simulated intestinal fluid (SIF) was prepared as recommended by Jantratid et al. (termed FaSSIFv2) with the addition of proteases trypsin and chymotrypsin each at 30 μg/mL.^18 This composition is denoted as “1x SIF” in the text. In some instances, designed proteins (pure recombinant protein, or yeast libraries as above) or the comparator V565-38F were so stable that minimal degradation could be detected at the maximum duration (24 hours for SDS PAGE experiments, 90 minutes for cytometry experiments). Therefore, we increased the concentrations of both trypsin and chymotrypsin to increase the rate of digestion; these solutions are denoted as “#x SIF”, where for example “2x SIP” denotes a 2-fold increase in concentration of both trypsin and chymotrypsin (to 60 μg/mL), Simulated gastric fluid was prepared as follows: 600 ug/mL pepsin and 34.2 mM NaCl in water, with […] added to adjust pH to 2.\nFor qualitative assessment of proteolytic stability, pure recombinant proteins were digested at 37° C. for 24 hours and proteolytic cleavage assessed by SDS PAGE. From concentrated stock solutions, recombinant proteins were added to stock SGF and SIF solutions to a final concentration of 0.1 mg/mL. Timepoints were taken at 0, 5, 15, 30, 60 minutes, 4 and 24 hours; at each timepoint, samples were removed and immediately mixed with load dye and boiled for 5 minutes at 95° C. to quench protease activity. 5 ug protein (based on initial digest concentration of 0.1 mg/mL) per timepoint were run on 16% Tris-tricine polyacrylamide gels."}, "human IL-23R (hIL-23R)": {"target": "T1, human IL-23R (hIL-23R) (Homo sapiens, UniProt Q5VWK5)", "T1 construct": "his tag (C); purchased", "T1 sequence (Q5VWK5 24-629)": "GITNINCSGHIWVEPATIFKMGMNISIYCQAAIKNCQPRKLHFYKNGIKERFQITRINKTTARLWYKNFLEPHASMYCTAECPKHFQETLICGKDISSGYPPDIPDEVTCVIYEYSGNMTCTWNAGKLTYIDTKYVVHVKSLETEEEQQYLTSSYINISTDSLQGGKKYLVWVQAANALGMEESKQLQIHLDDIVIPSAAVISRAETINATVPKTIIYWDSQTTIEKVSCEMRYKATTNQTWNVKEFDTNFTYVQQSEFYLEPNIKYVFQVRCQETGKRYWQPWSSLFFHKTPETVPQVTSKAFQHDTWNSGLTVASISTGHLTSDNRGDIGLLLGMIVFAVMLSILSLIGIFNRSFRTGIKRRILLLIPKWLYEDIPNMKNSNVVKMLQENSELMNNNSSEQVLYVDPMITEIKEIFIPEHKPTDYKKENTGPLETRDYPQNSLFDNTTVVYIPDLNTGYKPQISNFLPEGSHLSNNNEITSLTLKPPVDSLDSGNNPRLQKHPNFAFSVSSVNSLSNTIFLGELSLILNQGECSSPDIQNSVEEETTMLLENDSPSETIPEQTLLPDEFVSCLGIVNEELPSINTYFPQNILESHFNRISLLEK", "assay": "Biolayer interferometry (BLI) binding to hIL-23R", "details": "biolayer interferometry binding titrations; read-out: affinity (KD) for hIL-23R", "excerpt": "Two designs, 23R_A (SEQ ID NO:10) and 23R_B (SEQ ID NO:110), were highly enriched in the final selection pool and were chosen for further biochemical characterization. Both designs are 3-helix bundles (54 and 53 residues, respectively) which incorporate the native Trp hotspot at the N-terminal end of a helix such that IL-23R residue D118 forms a helix-capping hydrogen bond with the Trp hotspot's free backbone amine, similar to the αD helix of p19 (FIG. 1D). In both designs, this central binding helix has a larger interaction surface with hIL-23R, mediated by additional de novo hotspots, than p19. […]\nVariants were first screened for relative binding to hIL-23R with biolayer interferometry (BLI). hIL-23R was immobilized on the BLI sensor tips and binding to each variant in solution at a constant concentration (50 nM) was measured to qualitatively determine relative performance of the variants. For the best-performing variants, binding constants (KD, including kon, and koff) were quantitatively determined with BLI titration experiments in triplicate. […]\nQualitative and quantitative assessment of binding affinity was performed using biolayer interferometry (ForteBio Octet™ […] and associated software for analysis). […] Kinetic constants were determined from the mathematical fit of a 1:1 binding model."}, "[2]": {"assay": "Proteolytic stability in simulated gastric fluid (SGF), SDS PAGE", "assay_type": "in vitro ADME", "excerpt": "as §1, §2\nFor qualitative assessment of proteolytic stability, pure recombinant proteins were digested at 37° C. for 24 hours and proteolytic cleavage assessed by SDS PAGE. From concentrated stock solutions, recombinant proteins were added to stock SGF and SIF solutions to a final concentration of 0.1 mg/mL. […]"}, "IL-23R [3]": {"target": "T2, IL-23R (Homo sapiens, UniProt Q5VWK5)", "T2 sequence (Q5VWK5 24-629)": "T1 sequence (Q5VWK5 24-629)", "assay": "Surface plasmon resonance (SPR) binding affinity to hIL-23R", "parameters": "his tag (C); purchased"}, "IL-23R [4]": {"target": "T2, IL-23R", "assay": "IL-23-mediated cell signaling assay (Promega IL-23 Bioassay luciferase reporter cells)", "assay_type": "cell-based", "details": "IL-23 reporter assay; C-terminal versus N-terminal 6-histidine tag", "experimental": "FIG. 7. Designed IL-23R inhibitor block IL-23-mediated cell signaling in vitro. Cells engineered to express luciferase downstream of IL-23R (Promega) were pre-incubated for 30 minutes with a titration of each inhibitor, then stimulated with 8 ng/mL human IL-23 cytokine for 6 hours. Luciferase substrate was added, luminescence read, and % inhibition of signaling calculated relative to wells with no inhibitor added. IC50 was calculated using linear regression to fit dose response; values are shown above alongside fold increase in potency relative to a competitor molecule PTG compound C.\nNext, we assessed the ability of IL-23R inhibitors to block IL-23-mediated cell signaling. […] IC50 values were determined using linear regression to fit dose response.\nCommercial IL-23 reporter cells (Promega IL-23 Bioassay) expressing luciferase downstream of IL-23R were used to assess inhibition of IL-23-mediated cell signaling. Cells were plated in the inner wells of 96-well tissue culture treated white plates suitable for reading luminescence. Cells were pre-incubated for 30 minutes with a dilution series of each inhibitor, then treated with the EC80 stimulatory concentration of recombinant human IL-23 cytokine determined in preceding experiments (8 ng/mL; R&D 1290-IL). After 6 hours incubation with human IL-23, luciferase substrate was added and luminescence read. […]"}, "[5]": {"details": "trypsin and chymotrypsin, 37° C., SDS PAGE"}}, "note": "pKd: −log10 of the molar value. Read-outs that look alike come from different tables or passages of the source.", "data": [{"substance": "MEPEKYLRELCKKYYEGKLSQQEAVEEIRKYARKKGLEAWKLVWYFMQCVKRDI [rA11dslf02]", "values": [{"measurement": "SIF t1/2", "setting": "[1]; simulated gi fluid", "value": 60, "unit": "min"}]}, {"substance": "IL-23 cytokine: native ligand; heterodimeric cytokine composed of the p19 subunit and the p40 subunit", "values": [{"measurement": "pKd", "setting": "human IL-23R (hIL-23R)", "value": 8.77}]}, {"substance": "PEPEKYLQELCKKYYEGKLSQQEAVEEIRKYARKWGLEAWKLVWYFMQCVKRDI [rA11dslf02_M1P_R8Q_K35W]", "values": [{"measurement": "stability in SGF compared to V565-38F", "setting": "[2]; SGF", "value": "much more stable"}, {"measurement": "pKd", "setting": "IL-23R [3]", "value": 10.12}, {"measurement": "stability in SIF compared to V565-38F", "setting": "[1]; SIF with enzyme concentrations sufficient to degrade V565-38F over 24 hours (3x SIF)", "value": "similarly stable"}, {"measurement": "SIF t1/2", "setting": "[1]; [5]", "value": "240 to 1440", "unit": "min"}]}, {"substance": "mB09dslf01-T48I: best mIL-23R inhibitor after optimization for stability and mIL-23R affinity; T48I variant of mB09dslf01; no SEQ ID given (NLWQIFYCLLTCIKRTGDPTCKKLLKALQEAVKKNDEKAVKELAKKAIKYCRSHHHHHH)", "values": [{"measurement": "stability in SGF compared to V565-38F", "setting": "[2]", "value": "more stable"}, {"measurement": "SGF t1/2", "setting": "[2]; simulated gi fluid, pH 2", "value": "greater than 24 hours"}, {"measurement": "3x SIF t1/2", "setting": "[1]; simulated gi fluid", "value": "greater than 24 hours"}]}, {"substance": "PLWQVFYLLNTCIKRTGDPTCKKLAKALRECLKKGDLKACNELADKAVKYINS [B04dslf02IB]", "values": [{"measurement": "pKd", "setting": "IL-23R [3]", "value": "> 12.00"}, {"measurement": "effect of C-terminal 6-histidine tag on proteolytic stability", "setting": "[1]; SGF or SIF up to 24 hours, C-terminal versus N-terminal 6-histidine tag", "value": "greatly enhances the proteolytic stability"}, {"measurement": "SIF t1/2", "setting": "[1]; [5]", "value": "30 to 60", "unit": "min"}, {"measurement": "effect of C-terminal 6-histidine tag on potency", "setting": "IL-23R [4]", "value": "no effect on potency"}]}, {"substance": "NLWQIFYLLNTCIKRTGDPTCKKLKKALRECEKKGDEKACKELAKKAMKYIRS (NLWQIFYLLNTCIKRTGDPTCKKLKKALRECLKKGDEKACKELAKKAMKYIRS) [B04dslf02]", "values": [{"measurement": "SIF t1/2", "setting": "[1]; [5]", "value": "5 to 15", "unit": "min"}]}]}
